Reference: patent publication US20070026428A1

Legend:
Experiment in all cases: cell-based or functional assay
[1] = target: ced-3(p15)::nz, CED-3 small subunit p15 with the NZ anti-parallel leucine zipper at its C-terminus (C. elegans) (UniProt P42573)
[2] = target: cz::ced-3(p15), CED-3 small subunit with the CZ leucine zipper at its N-terminus (opposite orientation) (C. elegans) (UniProt P42573)
[3] = target: Caspase-3(p12)::nz, human Caspase-3 small subunit p12 with the NZ anti-parallel leucine zipper at its C-terminus (human) (UniProt P42574)

cz::ced-3(p17), CED-3 large subunit p17 with the CZ anti-parallel leucine zipper at its N-terminus (from UniProt P42573 222-374)
% GFP positive cells in L1 larvae, ced-3(n717) background [1]: 5.9%
% GFP positive cells in L1 larvae, ced-8(n1891) background [1]: 21.9%
% GFP positive cells in adults, ced-3(n717) background [1]: 5.1%
% GFP positive cells in adults, ced-8(n1891) background [1]: 4.5%
% GFP positive cells in adults, recCED-3(uIs37) [1]: 5.4%
death of touch sensory neurons monitored by the loss of GFP fluorescence, extrachromosomal arrays [1]: > 60%
death of touch sensory neurons, integrated lines [1]: > 95%

ced-3(p17)::nz, CED-3 large subunit with the NZ leucine zipper at its C-terminus (opposite orientation) (from UniProt P42573 222-374)
% GFP positive touch cells (surviving cells), zippers in the opposite orientation [2]: 96%

B1: cz::Caspase-3(p17), human Caspase-3 large subunit p17 with the CZ anti-parallel leucine zipper at its N-terminus (protein, part only; not given: Exact insert limits, part only)
chain, part: GGSGMENTENSVDSKSIKNLEPKIIHGSESMDSGISLDNSYKMDYPEMGLCIIINNKNFHKSTGMTSRSGTDVDAANLRETFRNLKYEVRNKNDLTREEIVELMRDVSKEDHSKRSSFVCVLLSHGEEGIIFGTNGPVDLKKITNFFRGDRCRSLTGKPKLFIIQACRGTELDCGIETD
% GFP positive cells in adults, ced-3(n717) background [3]: 1%
% GFP positive cells in adults, recCaspase-3(uIs40) [3]: 0.9%
% of YFP positive HeLa cells with nuclear YFP (caspase-sensing EYFP vector) after doxycycline induction [3]: 30 to 40%
animals completely or partially paralyzed within three hours after induction of heat shock, hsp-16 and myo-3 promoters [3]: > 50%
animals completely paralyzed within 12 hours after heat shock, hsp-16 and myo-3 promoters [3]: 100%
apoptotic death of touch sensory neurons in C. elegans, extrachromosomal arrays [3]: 80%
death of touch receptor neurons in C. elegans, integrated DNA [3]: 100%
killing of embryonically derived ALM and PLM touch neurons after heat shock in the embryo, hsp-16 and mec-18 promoters [3]: > 90%
paralysis of animals (death of body wall muscle cells) after heat shock, hsp-16 and myo-3 promoters [3]: > 90%
